B1: human recombinant PrP^C 23-230 (domain or fragment)
chain: not shown

Common to all, as to assay: SPR
In general terms: In SPR one partner is held on a chip, and binding of the other changes the refractive index at the surface.

Assay [1] concerns the target T1, synthetic human Aβ1-40, oligomerised (human, UniProt P05067).
The target of assay [2] is T2, synthetic human Aβ1-42, oligomerised (human, UniProt P05067).
For assay [3], the target named is B1.
The target of assay [4] is T1, synthetic human Aβ1-40, oligomerised. The source holds these as a separate data set.
The target in assay [5] is T2, synthetic human Aβ1-42, oligomerised. This is another data set of the same source.

From PMC11485400 (Alzheimer's & Dementia, 2024) come the findings set out here.

Usually Kd stands for the free concentration of one partner at which half of the binding sites on the other are occupied at equilibrium, for simple one-to-one binding.

Like-named read-outs stand apart in the source and are kept apart here.

Take B1: the Kd in assay [1] is 28.8 nM; in assay [2], 11.3 nM.

B2: caveolin-1 (Cav-1) (natural protein)
chain: MSGGKYVDSEGHLYTVPIREQGNIYKPNNKAMADELSEKQVYDAHTKEIDLVNRDPKHLNDDVVKIDFEDVIAEPEGTHSFDGIWKASFTTFTVTKYWFYRLLSALFGIPMALIWGIYFAILSFLHIWAVVPCIKSFLIEIQCISRVYSIYVHTVCDPLFEAVGKIFSNVRINLQKEI
As to B2, the results for the Kd in assay [3], in assay [4] and in assay [5] were 14.1 nM, 11.4 nM and 13 nM, respectively.
